Holding throughout (test): EMSA
Background: In EMSA bound probe runs differently from free probe, usually more slowly.

The target of series [1] is T1, Abf1 (Saccharomyces cerevisiae) (UniProt P14164).
T1 sequence: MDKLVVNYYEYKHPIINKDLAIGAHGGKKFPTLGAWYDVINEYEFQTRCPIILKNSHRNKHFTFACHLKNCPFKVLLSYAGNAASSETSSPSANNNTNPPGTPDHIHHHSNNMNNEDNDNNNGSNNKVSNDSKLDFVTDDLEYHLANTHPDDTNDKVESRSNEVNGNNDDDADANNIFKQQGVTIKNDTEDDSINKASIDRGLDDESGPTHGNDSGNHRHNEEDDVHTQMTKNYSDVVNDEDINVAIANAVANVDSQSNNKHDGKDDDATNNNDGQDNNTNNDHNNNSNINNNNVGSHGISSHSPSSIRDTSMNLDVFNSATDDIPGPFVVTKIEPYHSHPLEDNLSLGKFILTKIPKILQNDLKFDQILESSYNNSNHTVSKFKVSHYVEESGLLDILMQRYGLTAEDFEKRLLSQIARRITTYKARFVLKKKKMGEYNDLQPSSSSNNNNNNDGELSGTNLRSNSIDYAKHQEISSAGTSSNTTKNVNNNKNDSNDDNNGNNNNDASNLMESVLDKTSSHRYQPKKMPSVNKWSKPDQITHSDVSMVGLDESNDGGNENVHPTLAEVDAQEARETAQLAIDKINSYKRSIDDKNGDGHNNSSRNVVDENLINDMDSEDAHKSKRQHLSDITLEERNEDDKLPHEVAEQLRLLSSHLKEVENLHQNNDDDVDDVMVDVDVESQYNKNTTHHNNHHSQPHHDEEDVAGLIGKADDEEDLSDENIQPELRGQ
The conditions noted are these: apparent Kd on reconstituted nucleosome; 10.7 mM HEPES-KOH pH 7.9, 4 mM Tris-Cl, 80.9 mM NaCl, 19.1 mM KCl, 5.4 mM MgCl2, 0.2 mM Mg acetate, 0.05% NP-40, 10% glycerol, 0.2 uM ZnCl2, 0.2 mM EDTA, 0.4 mM.

Series [2] has as its target Cbf1 (Saccharomyces cerevisiae) (UniProt P17106). The conditions noted are these: apparent Kd on reconstituted nucleosome; 10.7 mM HEPES-KOH pH 7.9, 4 mM Tris-Cl, 80.9 mM NaCl, 19.1 mM KCl, 5.4 mM MgCl2, 0.2 mM Mg acetate, 0.05% NP-40, 10% glycerol, 0.2 uM ZnCl2, 0.2 mM EDTA, 0.4 mM.
Series [3] has as its target T2, Reb1 (Saccharomyces cerevisiae) (UniProt P21538).
T2 sequence: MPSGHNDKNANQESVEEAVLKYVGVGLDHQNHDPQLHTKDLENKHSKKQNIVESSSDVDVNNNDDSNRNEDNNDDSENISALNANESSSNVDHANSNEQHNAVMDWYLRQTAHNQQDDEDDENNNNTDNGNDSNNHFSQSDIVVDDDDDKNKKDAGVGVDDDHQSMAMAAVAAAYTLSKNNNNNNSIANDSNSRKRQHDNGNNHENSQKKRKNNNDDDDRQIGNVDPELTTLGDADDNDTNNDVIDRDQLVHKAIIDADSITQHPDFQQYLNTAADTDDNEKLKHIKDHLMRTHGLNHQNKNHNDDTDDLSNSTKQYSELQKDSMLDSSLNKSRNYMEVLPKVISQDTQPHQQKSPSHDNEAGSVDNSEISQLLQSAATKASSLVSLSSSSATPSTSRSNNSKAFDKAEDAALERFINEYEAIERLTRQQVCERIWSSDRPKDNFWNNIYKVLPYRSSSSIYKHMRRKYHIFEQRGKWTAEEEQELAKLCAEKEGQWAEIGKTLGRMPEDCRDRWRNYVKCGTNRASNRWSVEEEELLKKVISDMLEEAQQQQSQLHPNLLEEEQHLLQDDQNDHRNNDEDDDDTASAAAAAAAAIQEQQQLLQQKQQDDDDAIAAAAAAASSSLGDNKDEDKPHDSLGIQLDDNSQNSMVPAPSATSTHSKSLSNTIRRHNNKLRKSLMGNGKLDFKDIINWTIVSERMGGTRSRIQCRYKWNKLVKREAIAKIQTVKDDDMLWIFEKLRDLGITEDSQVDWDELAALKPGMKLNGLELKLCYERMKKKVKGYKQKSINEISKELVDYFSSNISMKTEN
The conditions noted are these: apparent Kd on reconstituted nucleosome; 10.7 mM HEPES-KOH pH 7.9, 4 mM Tris-Cl, 80.9 mM NaCl, 19.1 mM KCl, 5.4 mM MgCl2, 0.2 mM Mg acetate, 0.05% NP-40, 10% glycerol, 0.2 uM ZnCl2, 0.2 mM EDTA, 0.4 mM.

For series [4], the target named is T3, Rap1 (Saccharomyces cerevisiae) (UniProt P11938).
T3 sequence: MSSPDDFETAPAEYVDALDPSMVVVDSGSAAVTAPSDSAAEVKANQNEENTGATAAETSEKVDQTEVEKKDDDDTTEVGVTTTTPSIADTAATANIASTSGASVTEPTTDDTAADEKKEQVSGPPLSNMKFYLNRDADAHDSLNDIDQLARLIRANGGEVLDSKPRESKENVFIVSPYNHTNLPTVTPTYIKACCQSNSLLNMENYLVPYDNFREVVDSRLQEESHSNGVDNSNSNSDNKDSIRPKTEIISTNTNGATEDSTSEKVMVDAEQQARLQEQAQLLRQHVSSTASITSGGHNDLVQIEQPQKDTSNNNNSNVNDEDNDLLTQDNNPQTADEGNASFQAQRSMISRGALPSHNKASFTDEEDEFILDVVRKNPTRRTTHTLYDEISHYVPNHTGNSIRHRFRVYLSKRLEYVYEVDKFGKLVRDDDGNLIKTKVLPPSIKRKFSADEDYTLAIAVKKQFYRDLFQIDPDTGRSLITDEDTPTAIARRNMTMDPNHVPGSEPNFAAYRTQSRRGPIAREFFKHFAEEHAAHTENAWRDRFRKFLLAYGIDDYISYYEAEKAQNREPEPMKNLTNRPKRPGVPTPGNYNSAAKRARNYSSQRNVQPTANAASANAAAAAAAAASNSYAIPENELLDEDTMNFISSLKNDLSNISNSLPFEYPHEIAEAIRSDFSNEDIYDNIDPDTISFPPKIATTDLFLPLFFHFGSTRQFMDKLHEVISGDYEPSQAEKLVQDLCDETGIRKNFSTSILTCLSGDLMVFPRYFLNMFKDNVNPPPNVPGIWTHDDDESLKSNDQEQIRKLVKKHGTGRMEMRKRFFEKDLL
The conditions noted are these: 10.7 mM HEPES-KOH pH 7.9, 4 mM Tris-Cl, 80.9 mM NaCl, 19.1 mM KCl, 5.4 mM MgCl2, 0.2 mM Mg acetate, 0.05% NP-40, 10% glycerol, 0.2 uM ZnCl2, 0.2 mM EDTA, 0.4 mM.

Here are results for four sequences from PMC11069190.

Chain of UniProt P17106 (P17106 whole entry): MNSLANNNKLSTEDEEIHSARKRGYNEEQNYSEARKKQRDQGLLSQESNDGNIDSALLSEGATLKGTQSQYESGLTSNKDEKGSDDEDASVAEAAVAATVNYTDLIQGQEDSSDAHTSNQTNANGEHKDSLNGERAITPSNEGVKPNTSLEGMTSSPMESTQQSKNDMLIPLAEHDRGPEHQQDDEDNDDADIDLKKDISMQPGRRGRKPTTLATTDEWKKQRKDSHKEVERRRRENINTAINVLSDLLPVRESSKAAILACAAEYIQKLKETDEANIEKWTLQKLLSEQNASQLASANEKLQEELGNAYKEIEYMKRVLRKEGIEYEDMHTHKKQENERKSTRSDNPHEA

Take “GGTCGCTGTTCAATACATGCACAGGATGTATATATCTGACACGTGCCTGGAGACTAGGGAGTAATCCCCTTGGCGGTTAAAACGCGGGGGACAGCGCGTACGTGCGTTTAAGCGGTGCTAGAGCTGTCTACGACCAATTGAGCGGCCTCGGCACCGGGATTCTCCAGGGCGGCCGCTTATCGTATTGCATGATATGGTGATGACCGCGGACCTGCAGGCATGCAAGC (double strand) [20-NC-60Abf1bs nucleosome]”: the Kd in series [1] amounted to 1 nM.
For “GGTCGCTGTTCAATACATGCACAGGATGTATATATCTGACACGTGCCTGGAGACTAGGGAGTAATCCCCTTGGCGGTTAAAACGCGGGGGACAGCGCGTACGTGCGTTTAAGCGGTGCTAGAGCTGTCTACGACCAATTGAGCGGCCTCGGCACCGGGATTCTCCAGGGCGGCCGCTGTCACGTGGGCTAGTAATGGTGATGACCGCGGACCTGCAGGCATGCAAGC (double strand) [20-NC-60Cbf1bs nucleosome]”, the Kd in series [2] came out at 7.8 nM.
Regarding “GGTCGCTGTTCAATACATGCACAGGATGTATATATCTGACACGTGCCTGGAGACTAGGGAGTAATCCCCTTGGCGGTTAAAACGCGGGGGACAGCGCGTACGTGCGTTTAAGCGGTGCTAGAGCTGTCTACGACCAATTGAGCGGCCTCGGCACCGGGATTCTCCAGGGCGGCCGCTCGGGTAAAGCATCACCATGGTGATGACCGCGGACCTGCAGGCATGCAAGC (double strand) [20-NC-60Reb1bs nucleosome]”, the Kd in series [3] worked out at 4.9 nM.
“GGTCGCTGTTCAATACATGCACAGGATGTATATATCTGACACGTGCCTGGAGACTAGGGAGTAATCCCCTTGGCGGTTAAAACGCGGGGGACAGCGCGTACGTGCGTTTAAGCGGTGCTAGAGCTGTCTACGACCAATTGAGCGGCCTCGGCACCGGGATTCTCCAGGGCGGCCGCTACACCCATACATTTCCATGGTGATGACCGCGGACCTGCAGGCATGCAAGC (double strand) [20-NC-60Rap1bs nucleosome]” showed a Kd in series [4] of 0.8 nM.
